Experimental data taken from the nanobody polyreactivity screen of Harvey et al. (2022).

Experiment: yeast display, Sf9 membrane polyspecificity reagent, FACS + sequencing; frameworks hold sequencing errors
Method in brief: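 In a synthetic yeast display library (Saccharomyces cerevisiae BJ5465), nanobody expression was induced with galactose for 36–48 hours. FACS gates were set low and high (top ~1%) using anti-HA fluorescence for expression and streptavidin fluorescence for binding of the Sf9 membrane reagent. Each polyreactivity label is drawn from the gate of origin.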

Row | Sequence | polyreactivity (PSR sort gate)
1 | QVQLVESGGGLVQAGGTLRLSCAASGFTFGFKAMGWYRQAPGKEREFVASITYRGGSTYYADSVKGRFTISRDNAKNSVYLQMNSLKPEDTAVYFCATVSTRLRDYWGQGTQVTVSS | high polyreactivity
2 | QVQLVESGGGLVQAGGSLRVICAASGSTFLENAMGWYRQAPGKERELVAAISRSGARTYYADSVKGRFTISRDNAKNTVYLQMNSLKPEDTAVYYCAASHGKNKASGPMDYWGQGTQVTVSS | high polyreactivity
3 | QVQLVESGGGLVQAGGSLRLSCAASGRTFVPYVMGWYRQAPGKERELVAAISSSGGNTYYADSVKGRFTISPDNAKNTVYLQMNSLKPEDTAVYYCAARPRGYVYPGYYYWGQGSQVTVSS | high polyreactivity
4 | HVQLVESGGGLVQAGGSLRLSCAASGGTFTKYAMGWFRQAPGTEMELVAAISWRGTSTYYADSVKGRFTISRDNAKNTVYLQLYSLKPEDTAVHYCLPWVGYGRYKPGYKYDYWGQGTQVTVSS | high polyreactivity
5 | QVQLVESGGGLVQAGGSLRLSCAASGFTFGGYAMGWYRQAPGKERELVAAITWSGGTTYYADSVKGRFTISRDNAKNTVYLQMNSLKPEDTAVYYCAAESTLPIIDRDDYWGQGSQVTVSS | low polyreactivity
6 | QVQLVESGGGLVQAGGSLRLSCAASGSTYYPNAMGWYRQAPGKERELVAAISRGTRTKYADSVKGRFTISRDNAKNTVYLQMNSLKPEDTAVYYCAVLTYRGRFEYWGQGTQVTVSS | high polyreactivity
7 | QVQLVESGGGLVQAGGSLRLSSAASGFTFKYYAMGWYRQAPGKERELVARITGSSGSTYYADSVKGRFTISRDNAKNTVYLQMNSLKPEDTAVYYCAASFKFRYYRYGAYEYWGQGTQVTVSS | high polyreactivity
8 | QVQLVESGGRLVQAGGSLRLSCAASGRTFHRYAMGWYRQAPGKERELVAAITSSGGSTNYADSVKGRFTISRDNAKNTVYLQMNSLKPEDTAVYYCATVRYRYTSHPWSRGFDYWGQGTQVTVSS | low polyreactivity
9 | QVQLEESGGGLVQAGGSRRLSCAASGSIFIANAMGWYRQAAGKEREFVAGISASGSSTYYADSVKVRFTISRDNAKNTVYLQMNILKPEDTAVNYCAAGSYYWGQGTQVTVSS | high polyreactivity
10 | QVQLVESGGRLVQARGSLRLSCAPSGSIFYSNAMGSYRQAPGKEREFVAGIRSGGITNYADSVKGRFTISRDNAKNTVYLQMTSLKPEDTAVYYCAKLKDHGRYAYAFDYWRQGTQVTVSS | low polyreactivity
11 | QVELVESGGGLVQAGVSLRLSCAASGIISRGYAMGWYRQAPGKERELVAAISRSGGTTYYADSVKGRFTISRDNAKTTVYLQMNSLKPEDTAVYYCAARSKYFGYWGQGTQVTVSS | high polyreactivity
12 | QVQLVESGGGLVQAGGSLRLSCAASGSIFAQYAMGWYRQAPGKERELVATISSVGSTNYADSVKGRFTISRDNAKNTVYLQMNSLKPEDTAVYYCAARYPVGRSPRAYEYWGQGTQVTVSS | low polyreactivity
13 | QVHIVESGGGLVQAGGSLRLSCAASGLIFYLYTRGWSRQATGKERELVAAISRSGTITYYADSVKGRFTISRDNAKNTVYLQMNSLKPEDTAVYYCAATYTYIIGTRYDYWGQGTQVTVSS | high polyreactivity
14 | QVQLVESGGGLVQAGGSLRLSCAASGTIFQSNAMGWYRQAPGKERELVAAISSSGGRTYYADSVKGRFTISRDNAKNTVYLQMNSLKPEDTAVYYCADLGYPDGGWGQGTQVTVSS | low polyreactivity
15 | QVQLVESGGGLVQAGGSLRLSCAASGRTYYYNAMGWYRQAPGKERELVAVISWDDGSTYYADSVKGRFTISRDKAMNSVYLQLNSLKPEDTAVYYCAAYDYLDYADDYWGQGTQVTVSS | low polyreactivity
16 | QVQLVESGGGLVQAGGSHRLSCAASGRTFPVYAMGWYRHAPGKERELVAAIRGRSVRTYYADSVKGRFTISRDNAQNSVYLQMNSLKPEDTAVYYCAAYYFNPGMDYWGQGTQVTVSS | high polyreactivity
17 | QVQLVESGGGLVQAGGSLRLSCAASGSIFQHYAMGWYRQAPGKERELVARINWSGGRTYYADSVKGRFTISRDNAKNTVYLQMNSLKPEDTAVYYCNARYYYWGKAAFNYWGQGTQVTVSS | high polyreactivity
18 | QVQLVESGGGLVQAGGRLRLSCAASGIISRFYAMGWYRQAPGKERELVARISGSGGSTYYADSVKGRFTISRDNAKTTVYLQMNSLKPEDTAVYYFNAKSYRYFGVRRFNYWGQGTQVTVSS | high polyreactivity
19 | QVQLLESGGGLVQSGGSLRLSCAASGRNFTPYAMGWYRQAPGKERELVAAITGSGGITYYADSVKGRFTISRDNAKNTVYFQMNSLKPVDTAVYYCAKDWWQSDSVGDYTHYEYDYWGQGTQVTVSS | low polyreactivity
20 | QVQLVESGGGLVQAGGSLRISCAASGFTFYTNAMGWYIQAPGKERELVAAISSGGSTNYADSVKGRFTISRDNAKNTVYLQMNSLQPEDSAVYYCAARRGYWGQGTQVTVSS | high polyreactivity
21 | QVQLVESGGGLVQAGGSLRLSCAASGSIIYKYAMGWYRQAPGKERELVAAINSGGRTYYADSVKGRFTISRDNAKNTVYLQMNSLKPEDTAVYYCNAGTYYPGRYDYWGQGTQVTVSS | low polyreactivity
22 | QVQIVDSGGGLVQAGGSLRLTCAASAITFSTNALGWNRQAPGKERELVAAITSVTSTYYADSVKGRFTISRDNAKNTVYLLMKSLKTEYTAVYYWAARLSRWPYFYEYNYWGQGTEVTVSS | low polyreactivity

Row | Sequence | polyreactivity (PSR sort gate)
23 | QVQLVESGGGLVQAGGSLRLSCAASGRIFVKYAMGWYRQAPGKERELVAAISKSGGSTYYADSVKGRFTISRDNAKNTVYLQMNSLKPEDTAVYYCATRSREQYSVSYRLDYWGQGTQVTVSS | low polyreactivity
24 | QVQLVESGGGLVQAGGSLRLSCAASGRTFRYYAMGWYRQAPGKERELVAAISRGDSTHYADSVKGRFTISRDNAKNTVYLQMNSLKPEDTAVDYCAAYRGRSVDRQPYYCGQGTQVTVSS | high polyreactivity
25 | QVQLVESGGGLVQAGGSLRLSCAPSGSIFRKNAMGWYRQAPGKERELVAAITGTGRTTYADSVKGRFTISRDNAKNTVYLQMNSLKPEDTAVYYCAAESVSSGDNASRYDYWGQGTQVTVSS | low polyreactivity
26 | QVQLVESGGGLVQAGGSLRLSCAASGSIFRIYRMGWYRQAPGKERELVAAISYSGGNTYYADSVKGRFTISRDNAKNTVYLQMNSLKPEDTAVYYCAAVPYRKHSYPFRLNYWGQGTQVTVSS | high polyreactivity
27 | QVQLVESGIGLVQAGGSLRLSCAASGSTCDFYAMGWYRPAPGKERELVAAITSDGRTNYADSVKGRFTISRDNAKNTVYLQMNSLKPEDTAVYYCAVTYGYEYDYWGQGTQVTVSS | low polyreactivity
28 | QVQLVESGGGLVQAGGSLRLSCAASGRTFKKYAMGWYSQAPGKERELVAAITVSGGSTYYADSVKGRFTVSRDNAKNTVYLQMNSLKPEDTAVYYCAAGSYSRYLFSLYFDFDYWGQGNQVTVSS | low polyreactivity
29 | QVQLVESGGGLVQAGGSLRLSCAASGRIFQGYAMVWYRQAPGKERELVARITSGSNTNYADSVKGRFTISRDNAKNTVYLQMNSLKPEDTAVYYCAKEPVGSVRYGRFQQDDYWGQGTQVTVSS | low polyreactivity
30 | QVQLVESGGGLVQAGGSLRLSCAASGRIFYYNALGWYRPAPGKERELVAAISWSGGSTYYADSVKGRFTISRDNATNTVYLQMNSLKPEDTAVYYCAVDVYGYTPRPTREPLIYEYWGQGTQVTVSS | low polyreactivity
31 | QVQLVESGGGLVQAGGSLRLSCAASGSIIYPYAMGWYRQAPGKERELVASINWRTGSTYYADSVKGRFTISRDNAKNTVYLQMNSLKPEDTAVYYCAARLDYYTGFDYWGQGTQVTVSS | low polyreactivity
32 | QVQLVESGGGLVQAGGSLRLSCAASGSIFHYYGMGWYRQAPGKERELVAAISRGGSTNYADSVKGRFTISRDNAKNTVYLQMNSLKPEDTAVYYCNARTYRKAYSGYNYWGQGTQVTVSS | high polyreactivity
33 | QVHLVESGGGLVQAGGSLRLSCAASGSTFSGYAMGWDRQAPGKDREFVATITSTGSTNYADSVKGRFTSSRDNAKNTVYLQMNSLNPEENAVYYCHSRYWFVERYFLHYASVRYDYWGQGTKVTVSS | low polyreactivity
34 | QVQLVESGGGLVQAGGSLRLSCAASGSIIGRNVMGWYRQAPGKERELVAVITGSGGGTYYADSVKGRFTISRDNAKNTVYLQMNSLKPEDTAVYYCAARKRGTFTYDYWGQGTQVTVSS | high polyreactivity
35 | QVQLVESGAGLVQAGGSLRLSCAASGLTFVFYAMGWYRQAPGKERELVAAISSSGGSTNYADSVKGRFTISRDNAKNTVYLQMNSLKPEDTAVYYCAAETVSWYRYYYRGQGTQVTVSS | high polyreactivity
36 | QGQLVESGRGLVQAGGSLRLSCAASGRIFVIYDIGWYRQAPGKEREFVAAISWRSGSTYYADSVKGRFTISRDNAKNTVYLQMNSLKPDDTAVYDCNKDYHVRYYYWGQGTQVTVSS | low polyreactivity
37 | QVQLQESGGGLVQAGGSLRLSCAASGTIFTARIMGWYRQAPGKERELVATITDGGNTNHADSVKCRFTISRDNAKITVYLQMNSLKPEDAAVYYCAAGEVDNDTLLYWGQGSQVTVSS | low polyreactivity
38 | QVQLVESGGGLVQAGGSLRLSCAASGRTFYWYVMGWYRQAPGKERELVAAITQTGSSTYYADSVKGRFTISRDNAKNTVYLQMNSLKPEDTAAYYCADRLSRNHYEVDYWGQGTQVTVSS | low polyreactivity
39 | QVQLVESGGGLVQAGGSLRLSCAASGLTFLKNAMGWYRQAPGKERELVAAISDGGSTNYADSVKGRFTISRDNAKNTVYLQMNSLKPEDTAVYYCAAVYTSASYGSWGQGTQVTVSS | low polyreactivity
40 | QVQLVESGGGLVQAGGSLRLSCAASGRIFSGYAMGWYRQAPGKESELVAAITSRSGSTYYADSVKARFTISRDNAKNTVYLQMNSLKPEDTAVYYCDAEYVRFYWYTSDYWGQGTQVTVSS | low polyreactivity
41 | QVQLVESGGGLVQAGGSLRLSCAASGIIFDWYAMGWYRQAPGKERELVAAISDSGDTTYYADSVKGRFTISRDNAKNTVYLQMNSLKPEDTAVYYCAAVSYQYYDLDYWGQGTQVTVSS | high polyreactivity
42 | QVQLVESGGGLVQAGGSLRLSCAASGLTFPLYAMGWYRPAPGKEREFVAAITVSGVSTSYADSVKGRFTISRDNAKNTVYLQMNSLKPEDTAVYYCAADYYIWTYWDVYYWGQGTQVTVSS | high polyreactivity
43 | QVQLVESGGGLVQAGGSLRLSCAASGFTFRLYVMGWYREAPGTERELVAALSSRGGSTYYADSVKGRFTISRDNAKYTVYLQMNRLKPDDTAFYYCAADRPRCRETVDYWGHGTQVTVSS | high polyreactivity
